For 2 substances, stoichiometry N results are on record in article PMC3382604.

In general, stoichiometry N refers to the number of molecules, sites or subunits per partner or assembly.

Experiment [1] concerns the target Dihydrodipicolinate synthase from Bacillus anthracis (Bacillus anthracis). Nature of the experiment: AUC.
Experiment [2] has the same target. Put plainly: SAXS.
Experiment [3] has as its target Dihydrodipicolinate synthase from Vitis vinifera (Vitis vinifera). Put plainly: SAXS.
Experiment [4] shares this target. Put plainly: crystal structure; Vv-DHDPS in complex with pyruvate, 2.2 Å, space group P1, eight monomers (two tetramers) in the asymmetric unit.
Experiment [5] shares this target. Put plainly: AUC; sedimentation velocity, 13 µM initial protein, 40,000 rpm, 30°C, absorbance at 280 nm, 2DSA Monte Carlo analysis; without and with saturating (5 mM) pyruvate.

On to “Dihydrodipicolinate synthase from Bacillus anthracis (enzyme)”, for which the stoichiometry N in experiment [1] and in experiment [2] was 4 each time.
As to “Dihydrodipicolinate synthase from Vitis vinifera (enzyme)”, the stoichiometry N in experiment [3], in experiment [4] and in experiment [5] was 4 throughout.
